T1: FcgRIIaR (human, UniProt P12318)
T1 chain: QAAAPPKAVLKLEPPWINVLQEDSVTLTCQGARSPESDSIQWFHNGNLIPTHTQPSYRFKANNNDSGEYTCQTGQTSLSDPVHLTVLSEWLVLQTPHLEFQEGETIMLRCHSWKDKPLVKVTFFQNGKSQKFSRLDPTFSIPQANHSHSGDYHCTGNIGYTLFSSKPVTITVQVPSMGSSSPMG

T2: FcgRIa (human, UniProt P12314)
T2 chain: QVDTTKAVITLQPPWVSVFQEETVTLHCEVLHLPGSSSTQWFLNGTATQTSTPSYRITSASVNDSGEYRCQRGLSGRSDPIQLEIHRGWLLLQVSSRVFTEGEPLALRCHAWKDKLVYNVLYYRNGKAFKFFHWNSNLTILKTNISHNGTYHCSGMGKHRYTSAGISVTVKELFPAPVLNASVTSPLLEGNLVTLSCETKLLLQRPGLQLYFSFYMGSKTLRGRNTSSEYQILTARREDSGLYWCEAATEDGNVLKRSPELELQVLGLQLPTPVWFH

T3: FcgRIIb (human, UniProt P31994)
T3 chain: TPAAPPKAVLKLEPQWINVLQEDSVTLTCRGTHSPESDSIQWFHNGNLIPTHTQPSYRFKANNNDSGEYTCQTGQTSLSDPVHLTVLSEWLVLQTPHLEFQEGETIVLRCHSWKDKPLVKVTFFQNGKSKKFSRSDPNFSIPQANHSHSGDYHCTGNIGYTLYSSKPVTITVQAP

T4: FcgRIIaH (human, UniProt P12318)
T4 chain: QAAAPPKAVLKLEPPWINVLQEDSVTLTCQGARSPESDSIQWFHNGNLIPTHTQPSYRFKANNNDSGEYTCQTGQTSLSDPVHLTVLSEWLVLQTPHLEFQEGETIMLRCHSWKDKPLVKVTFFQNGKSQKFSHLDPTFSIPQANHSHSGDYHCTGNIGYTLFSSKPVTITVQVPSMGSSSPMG


How the values were obtained:
Assay in all cases: SPR
[1] = molecular target: T1, FcgRIIaR
[2] = molecular target: T2, FcgRIa
[3] = molecular target: T3, FcgRIIb
[4] = molecular target: FcgRIIIaV (human, UniProt P08637)
FcgRIIIaV, sequence (P08637 17-208 F176V): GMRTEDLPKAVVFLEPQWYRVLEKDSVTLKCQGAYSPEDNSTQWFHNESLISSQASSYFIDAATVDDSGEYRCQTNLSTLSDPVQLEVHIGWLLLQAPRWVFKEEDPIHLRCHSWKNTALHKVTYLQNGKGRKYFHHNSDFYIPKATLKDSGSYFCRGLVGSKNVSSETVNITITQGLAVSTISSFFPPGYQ

[5] = molecular target: T4, FcgRIIaH

| Binder | Kd [1] | Kd [2] | Kd [3] | Kd [4] | Kd [5] |
| --- | --- | --- | --- | --- | --- |
| IL6R-P693/IL6R-L (antibody) chain 1: QVQLQESGPGLVKPSETLSLTCAVSGHSISHDHAWSWVRQPPGEGLEWIGFISYSGITNYNPSLQGRVTISRDNSKNTLYLQMNSLRAEDTAVYYCARSLARTTAMDYWGEGTLVTVSSASTKGPSVFPLAPSSKSTSGGTAALGCLVKDYFPEPVTVSWNSGALTSGVHTFPAVLQSSGLYSLSSVVTVPSSSLGTQTYICNVNHKPSNTKVDKKVEPKSCDKTHTCPPCPAPELLGGDSVFLFPPKPKDTLMISRTPEVTCVVVDVSHEDPEVKFNWYVDGVEVHNAKTKPREEQENATYRVVSVLTVLHQDWLNGKEYKCKVSNKALPAPIEKTISKAKGQPREPQVYTLPPSRDELTKNQVSLTCLVKGFYPSDIAVEWESNGQPENNYKTTPPVLDSDGSFFLYSKLTVDKSRWQQGNVFSCSVMHEALHNHYTQKSLSLSP chain 2: not shown | 68 µM | 7.8 nM | 5.6 µM | 40 µM | 150 µM |
| IL6R-P659/IL6R-L (antibody) chain 1: QVQLQESGPGLVKPSETLSLTCAVSGHSISHDHAWSWVRQPPGEGLEWIGFISYSGITNYNPSLQGRVTISRDNSKNTLYLQMNSLRAEDTAVYYCARSLARTTAMDYWGEGTLVTVSSASTKGPSVFPLAPSSKSTSGGTAALGCLVKDYFPEPVTVSWNSGALTSGVHTFPAVLQSSGLYSLSSVVTVPSSSLGTQTYICNVNHKPSNTKVDKKVEPKSCDKTHTCPPCPAPELLGQDSVMLFPPKPKDTLMISRTPEVTCVVVDVSHEDPEVKFNWYVDGVEVHNAKTKPREEQENSTYRVVSVLTVLHQDWLNGKEYKCKVSNKALPAPIEKTISKAKGQPREPQVYTLPPSRDELTKNQVSLTCLVKGFYPSDIAVEWESNGQPENNYKTTPPVLDSDGSFFLYSKLTVDKSRWQQGNVFSCSVMHEALHNHYTQKSLSLSP chain 2: not shown | 85 µM | 80 nM | 6.4 µM | 73 µM | 160 µM |

Other lines, results leading:

| Kd [1] | Kd [2] | Kd [3] | Kd [4] | Kd [5] | Binder |
| --- | --- | --- | --- | --- | --- |
| 59 µM | 260 nM | 2.3 µM | 73 µM | 140 µM | IL6R-P735/IL6R-L (antibody) chain 1: QVQLQESGPGLVKPSETLSLTCAVSGHSISHDHAWSWVRQPPGEGLEWIGFISYSGITNYNPSLQGRVTISRDNSKNTLYLQMNSLRAEDTAVYYCARSLARTTAMDYWGEGTLVTVSSASTKGPSVFPLAPSSKSTSGGTAALGCLVKDYFPEPVTVSWNSGALTSGVHTFPAVLQSSGLYSLSSVVTVPSSSLGTQTYICNVNHKPSNTKVDKKVEPKSCDKTHTCPPCPAPELFGQDSVMLFPPKPKDTLMISRTPEVTCVVVDVSPEDPEVKFNWYVDGVEVHNAKTKPREEQENSTYRVVSVLTVLHQDWLNGKEYKCKVSNKALPHPIEKTISKAKGQPREPQVYTLPPSRDELTKNQVSLTCLVKGFYPSDIAVEWESNGQPENNYKTTPPVLDSDGSFFLYSKLTVDKSRWQQGNVFSCSVMHEALHNHYTQKSLSLSP chain 2: not shown |
| 120 µM | 170 nM | 6.4 µM | 68 µM | 160 µM | IL6R-P737/IL6R-L (antibody) chain 1: QVQLQESGPGLVKPSETLSLTCAVSGHSISHDHAWSWVRQPPGEGLEWIGFISYSGITNYNPSLQGRVTISRDNSKNTLYLQMNSLRAEDTAVYYCARSLARTTAMDYWGEGTLVTVSSASTKGPSVFPLAPSSKSTSGGTAALGCLVKDYFPEPVTVSWNSGALTSGVHTFPAVLQSSGLYSLSSVVTVPSSSLGTQTYICNVNHKPSNTKVDKKVEPKSCDKTHTCPPCPAPELLGQDSVMLFPPKPKDTLMISRTPEVTCVVVDVSPEDPEVKFNWYVDGVEVHNAKTKPREEQENSTYRVVSVLTVLHQDWLNGKEYKCKVHNKALPHPIEKTISKAKGQPREPQVYTLPPSRDELTKNQVSLTCLVKGFYPSDIAVEWESNGQPENNYKTTPPVLDSDGSFFLYSKLTVDKSRWQQGNVFSCSVMHEALHNHYTQKSLSLSP chain 2: not shown |

Source: patent publication US11267868 (dated 2022)
